Assay results from article PMC9613477.

Columns and labels:
Test in all cases: crystal structure; disulfide cross-linked CA hexamers, hanging- or sitting-drop vapour diffusion, data at 100 K, molecular replacement with PDB 3H47
[1] = target: HIV-1(M-group) CA Q50Y hexamer (A14C, E45C, Q50Y, W184A, M185A) (HIV-1 group M)
[2] = target: HIV-1(O-group) CA hexamer (A14C, E45C, W185A, M186A) (HIV-1 group O)
[3] = target: SIVcpz CA hexamer (P14C, E45C, W184A, M185A) (SIVcpzPtt (SIV of central chimpanzees))
[4] = target: SIVmac CA hexamer (P13C, E44C, W182A, M183A) (SIVmac (SIV from macaques))

Substance: HIV-1(M-group) CA Q50Y hexamer (A14C, E45C, Q50Y, W184A, M185A) (natural protein)
- stoichiometry N [1]: 6

Substance: HIV-1(O-group) CA hexamer (A14C, E45C, W185A, M186A) (natural protein)
- stoichiometry N [2]: 6

Substance: SIVcpz CA hexamer (P14C, E45C, W184A, M185A) (natural protein)
- stoichiometry N [3]: 6

Substance: SIVmac CA hexamer (P13C, E44C, W182A, M183A) (natural protein)
- stoichiometry N [4]: 6
